How the values were obtained:
[1] = molecular target: PKC substrate sequence … of CKAR, phosphorylated by PKC at the phosphoacceptor threonine; test: cell-based or functional assay
[2] = molecular target: modified kemptide LRRASLP of C4kY2.1, phosphorylated by PKA at serine 475; test: cell-based or functional assay

| Substance | absolute amount of FRET of purified CKAR after phosphorylation by PKC βII (38% before), estimated from emission spectra [1] | FRET efficiency of phosphorylated C4kY2.1, calculated after trypsin treatment (nonphosphorylated: 30%) [2] | change in the emission ratio 535 nm/480 nm in cells pretreated with 10 µM H-89, then 1 mM dbcAMP [2] | emission ratio of 526 nm and 476 nm of the purified PKA-phosphorylated chimera before dephosphorylation by PP1 (1.14 after) [2] | increase in the 535 nm/480 nm ratio in COS-7 cells treated with FsK and with dbcAMP [2] | ratio of the emission at 526 nm and 476 nm of purified C4kY2.1 after phosphorylation by PKA catalytic subunit (1.09 before) [2] |
| --- | --- | --- | --- | --- | --- | --- |
| FHA2 phosphothreonine binding domain from the yeast checkpoint protein rad53p, as the binding domain of CKAR (from UniProt P22216 601-681) | 34% | – | – | – | – | – |
| 14-3-3τ (1-232), the phosphoaminoacid binding domain of the chimeric PKA reporter protein C4kY2.1 | – | 20% | 46% | 1.39 | 5% | 1.42 |

From patent US20050026234A1
